Paper PMC3906837

Columns and labels:
[1] = molecular target: WT ORF18 ArdA (Streptococcus faecalis (Tn916 conjugative transposon)); assay: AUC; sedimentation equilibrium at 15 μM (monomers); 17 000, 27 000 and 35 000 r.p.m.; 20 °C; 200 mM NaCl, 20 mM Tris, 20 mM MES, 1 mM TCEP, pH 6.5; SEDPHAT; dimer to monomers
[2] = molecular target: WT ORF18 ArdA (Streptococcus faecalis (Tn916 conjugative transposon)); assay: AUC; sedimentation equilibrium at 3.0 μM and 0.6 μM (monomers); 17 000, 27 000 and 35 000 r.p.m.; 20 °C; 200 mM NaCl, 20 mM Tris, 20 mM MES, 1 mM TCEP, pH 6.5; SEDPHAT
[3] = molecular target: L127E ArdA (Streptococcus faecalis (Tn916 conjugative transposon)); assay: AUC; sedimentation equilibrium at 15 μM (monomers); 17 000, 27 000 and 35 000 r.p.m.; 20 °C; 200 mM NaCl, 20 mM Tris, 20 mM MES, 1 mM TCEP, pH 6.5; SEDPHAT; dimer to monomers
[4] = molecular target: EcoKI Type I RM enzyme (E. coli (endogenous in E. coli NM1049(DE3))) (UniProt P08956)

| Substance | stoichiometry N [1] | stoichiometry N [2] | Kd [3] [µM] | stoichiometry N [3] | antimodification in vivo: titre ratio of phage λv.0 recovered from E. coli NM1049(DE3) expressing the ArdA protein (WT ORF18 ArdA 122.0; vector 0.9) [4] |
| --- | --- | --- | --- | --- | --- |
| WT ORF18 ArdA (natural protein) | 2 | 2 |  |  |  |
| L127E ArdA (natural protein) |  |  | 10 | 2 | 1 |
